The target of the experiment is T1, soluble recombinant human CD93 ectodomain protein rCD93D123 (Thr22-Lys580) (human, UniProt Q9NPY3 22-580).
T1 construct: CD93, human, ectodomain D1 (lectin-like domain) + D2 (five EGF-like repeats) + D3 (mucin-like domain), residues Thr22-Lys580; also called soluble rCD93; source: HEK293 cell protein expression system, purified (nickel-chelating Sepharose column)
T1 sequence (looked up): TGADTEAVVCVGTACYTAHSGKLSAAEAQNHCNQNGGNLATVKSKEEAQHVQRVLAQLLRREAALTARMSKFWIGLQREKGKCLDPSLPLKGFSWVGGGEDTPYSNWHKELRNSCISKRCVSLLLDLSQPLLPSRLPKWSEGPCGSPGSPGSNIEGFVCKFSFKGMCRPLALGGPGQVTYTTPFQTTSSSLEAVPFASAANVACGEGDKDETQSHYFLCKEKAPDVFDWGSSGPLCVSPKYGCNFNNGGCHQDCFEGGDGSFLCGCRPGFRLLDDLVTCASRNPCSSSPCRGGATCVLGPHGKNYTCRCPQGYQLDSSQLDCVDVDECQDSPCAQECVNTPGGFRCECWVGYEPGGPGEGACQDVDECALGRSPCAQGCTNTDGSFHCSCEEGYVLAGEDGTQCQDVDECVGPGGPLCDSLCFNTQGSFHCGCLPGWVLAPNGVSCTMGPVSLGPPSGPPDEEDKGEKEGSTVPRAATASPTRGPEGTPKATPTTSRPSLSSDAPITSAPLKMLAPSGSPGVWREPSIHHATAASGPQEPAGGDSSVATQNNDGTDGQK
The experiment in a line: co-IP; rCD93D123 (5 nM) and HMGB1 (5 nM) incubated 1 hour at 37 °C in 50 mM Tris-HCl, 100 mM NaCl, 0.25% Triton X-100, 1 mM MgCl2, 2 mM EGTA; precipitated with anti-HMGB1 antibody on protein A agarose overnight at 4 °C; blot with anti-c-Myc antibody. Particulars: both partners purified.

B1: recombinant human high-mobility group box 1 (HMGB1) protein (natural protein, UniProt P09429 1-215, looked up)
chain: MGKGDPKKPRGKMSSYAFFVQTCREEHKKKHPDASVNFSEFSKKCSERWKTMSAKEKGKFEDMAKADKARYEREMKTYIPPKGETKKKFKDPNAPKRPPSAFFLFCSEYRPKIKGEHPGLSIGDVAKKLGEMWNNTAADDKQPYEKKAAKLKEKYEKDIAAYRAKGKPDAAKKGVVKAEKSKKKKEEEEDEEDEEDEEEEEDEEDEDEEEDDDDE
notes: High-mobility group box 1 protein, human, recombinant; No catalogue number is printed; source: bought: R&D Systems
For the molecule B1, the binding result is on record as “binds”.

Values taken from paper PMC10405849, “Soluble CD93 lectin-like domain sequesters HMGB1 to ameliorate inflammatory diseases” (Theranostics, 2023).
